For this experiment, the target named is T1, human CD40 (human, UniProt P25942 21-277).
T1 construct: Endogenous CD40 on Ramos cells (ATCC CRL-1596), 'which expresses human CD40'
The experiment can be described thus: flow cytometry (FACS, MFI) on Ramos cells expressing human CD40, R-PE anti-human antibody detection. The procedure: The Ramos cell line was suspended in staining buffer (SB) of PBS containing 0.1% NaN₃, 2 mM EDTA, and 2% FCS at a density of […]. The cell suspension (100 μL/well) was dispensed into a 96-well round-bottom plate (manufactured by Becton Dickinson). The purified antibody (50 μL) was added thereto, followed by incubation at ice temperature for 30 minutes. As negative control, an anti-human IgG2 antibody against 2,4-dinitrophenol was used and the purified antibodies (50 μL) were similarly added, followed by incubation at ice temperature for 15 minutes. After the cells were washed with SB, 50 μL of 250-fold diluted R-PE fluorescence-labeled anti-human antibodies (manufactured by Southern Biotechnology) was added thereto, followed by incubation at ice temperature for 15 minutes. The cells were washed twice with SB and suspended in 300 to 500 μL of FACS buffer. And the fluorescence intensity (MFI) of individual cells was measured by FACS (FACScalibur, manufactured by Becton Dickinson).
(In general: Flow cytometry measures light scatter and fluorescence of single cells or particles in a stream.)

The text below walks through data of patent US20160075792A1 (Kyowa Kirin, published 2016).

T1 sequence (P25942 21-277 limits assumed): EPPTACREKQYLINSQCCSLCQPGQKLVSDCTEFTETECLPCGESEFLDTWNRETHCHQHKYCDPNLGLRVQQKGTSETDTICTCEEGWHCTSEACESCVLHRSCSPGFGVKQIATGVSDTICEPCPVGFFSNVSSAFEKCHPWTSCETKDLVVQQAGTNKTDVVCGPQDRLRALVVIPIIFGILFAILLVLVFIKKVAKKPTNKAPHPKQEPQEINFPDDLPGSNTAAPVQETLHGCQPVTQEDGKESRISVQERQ

B1: IgG2-AAS(341) antibody (antibody)
heavy: QVQLQQSGPGLVKPSQTLSLTCAISGDSVSSNSATWNWIRQSPSRDLEWLGRTYYRSKWYRDYVGSVKSRIIINPDTSNNQFSLQLNSVTPEDTAIYYCTRAQWLGGDYPYYYSMDVWGQGTTVTVSSASTKGPSVFPLAPCSRSTSESTAALGCLVKDYFPEPVTVSWNSGALTSGVHTFPAVLQSSGLYSLSSVVTVPSSNFGTQTYTCNVDHKPSNTKVDKTVERKCCVECPPCPAPPAAAPSVFLFPPKPKDTLMISRTPEVTCVVVDVSHEDPEVQFNWYVDGVEVHNAKTKPREEQFNSTFRVVSVLTVVHQDWLNGKEYKCKVSNKGLPASIEKTISKTKGQPREPQVYTLPPSREEMTKNQVSLTCLVKGFYPSDIAVEWESNGQPENNYKTTPPMLDSDGSFFLYSKLTVDKSRWQQGNVFSCSVMHEALHNHYTQKSLSLSPGK
light: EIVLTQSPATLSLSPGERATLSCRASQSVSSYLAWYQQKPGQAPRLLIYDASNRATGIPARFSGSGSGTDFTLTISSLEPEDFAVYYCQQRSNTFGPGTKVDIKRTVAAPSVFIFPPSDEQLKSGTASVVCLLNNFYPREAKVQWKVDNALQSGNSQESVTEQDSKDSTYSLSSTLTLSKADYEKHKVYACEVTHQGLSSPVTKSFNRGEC
notes: kappa light chain; Signal peptides (1-20 of each chain, estimated by SignalP) are left out; Expressed transiently in 293 cells and purified on protein A
Take B1: the binding result is reported as “binds”.

B2: IgG2-S(341) antibody (antibody)
heavy: QVQLQQSGPGLVKPSQTLSLTCAISGDSVSSNSATWNWIRQSPSRDLEWLGRTYYRSKWYRDYVGSVKSRIIINPDTSNNQFSLQLNSVTPEDTAIYYCTRAQWLGGDYPYYYSMDVWGQGTTVTVSSASTKGPSVFPLAPCSRSTSESTAALGCLVKDYFPEPVTVSWNSGALTSGVHTFPAVLQSSGLYSLSSVVTVPSSNFGTQTYTCNVDHKPSNTKVDKTVERKCCVECPPCPAPPVAGPSVFLFPPKPKDTLMISRTPEVTCVVVDVSHEDPEVQFNWYVDGVEVHNAKTKPREEQFNSTFRVVSVLTVVHQDWLNGKEYKCKVSNKGLPASIEKTISKTKGQPREPQVYTLPPSREEMTKNQVSLTCLVKGFYPSDIAVEWESNGQPENNYKTTPPMLDSDGSFFLYSKLTVDKSRWQQGNVFSCSVMHEALHNHYTQKSLSLSPGK
light: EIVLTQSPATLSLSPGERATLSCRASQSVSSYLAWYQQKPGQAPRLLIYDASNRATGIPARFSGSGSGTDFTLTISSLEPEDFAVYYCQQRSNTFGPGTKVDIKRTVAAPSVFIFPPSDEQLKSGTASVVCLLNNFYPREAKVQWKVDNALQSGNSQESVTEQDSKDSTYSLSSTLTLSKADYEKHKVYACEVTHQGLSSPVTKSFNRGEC
Regarding B2, the binding result is recorded as “binds”.
